Key:
Assay in all cases: cell-based or functional assay
[1] = molecular target: DEN2 E protein of chimeric WN/DEN2 virus, V-10 seed (E-K122I/K mixed, E-S186F, E-N203D) (Dengue virus type 2, strain 16681 (in a West Nile NY99 backbone)) (UniProt P29990)
[2] = molecular target: DEN2 E protein of chimeric WN/DEN2 virus, V-3 seed (E-N203D; NS2A-I49T and NS2A-F94L elsewhere in the virus) (Dengue virus type 2, strain 16681 (in a West Nile NY99 backbone)) (UniProt P29990)
[3] = molecular target: DEN2 E protein of chimeric WN/DEN2 virus, C6-1 seed (Dengue virus type 2, strain 16681 (in a West Nile NY99 backbone)) (UniProt P29990)
[4] = molecular target: E protein of wild type West Nile virus NY99 (West Nile virus, strain NY99) (UniProt Q9Q6P4); details: scale: greatest antibody dilution that decreased plaques by at least 50%
[5] = molecular target: DEN2 E protein of chimeric WN/DEN2 virus, C6-1/V-2 seed (E-N203D) (Dengue virus type 2, strain 16681 (in a West Nile NY99 backbone)) (UniProt P29990)

| Substance | PRNT50 Titer [1] | PRNT50 Titer [2] | PRNT50 Titer [3] | PRNT50 Titer [4] | PRNT50 Titer [5] |
| --- | --- | --- | --- | --- | --- |
| DENV-2 E protein-specific monoclonal antibody (MAb3H5) | > 2560 | > 2560 | > 2560 | < 80 | > 2560 |
| WNV E protein-specific monoclonal antibody (MAb3.67G) | < 1280 | < 1280 | < 1280 | > 41000 | < 1280 |
